From publication PMC8136826 come the findings set out here.

This data set has as its target Cas12a ΔBH (Francisella novicida, UniProt A0Q7Q2 1-1300, del953-969). As to the kind of experiment: EMSA. In general terms: Mobility shift assays separate free from complexed probe on a gel.

B1: crRNA + dsDNA target (58 nt, TS/NTS) (mixed)
RNA: UAAUUUCUACUGUUGUAGAUGUGAUAAGUGGAAUGCCAUGUGGG
DNA 1: ACTCAATTTTGACAGCCCACATGGCATTCCACTTATCACTAAAGGCATCCTTCCACGT
DNA 2: ACGTGGAAGGATGCCTTTAGTGATAAGTGGAATGCCATGTGGGCTGTCAAAATTGAGT
As for B1, the binding result is recorded as “binds”.
